Experimental data taken from patent publication US20240368668A1, “SUBSTRATES AND BIOMARKERS OF ADAMTS7” (The Broad Institute, Inc., priority 2021, published 2024).

Target: T1, mouse ADAMTS7 (Mus musculus, UniProt Q68SA9, E373Q)
T1 construct: Full-length mouse Adamts7 1-1857 (Uniprot Q68SA9, WT or E373Q catalytic mutant); expressed in transfected cells; host or cells: Human Coronary Artery Smooth Muscle Cells (HCA-SMC, Lonza), adenovirus 50 MOI
T1 sequence (Q68SA9 221-1657 E373Q): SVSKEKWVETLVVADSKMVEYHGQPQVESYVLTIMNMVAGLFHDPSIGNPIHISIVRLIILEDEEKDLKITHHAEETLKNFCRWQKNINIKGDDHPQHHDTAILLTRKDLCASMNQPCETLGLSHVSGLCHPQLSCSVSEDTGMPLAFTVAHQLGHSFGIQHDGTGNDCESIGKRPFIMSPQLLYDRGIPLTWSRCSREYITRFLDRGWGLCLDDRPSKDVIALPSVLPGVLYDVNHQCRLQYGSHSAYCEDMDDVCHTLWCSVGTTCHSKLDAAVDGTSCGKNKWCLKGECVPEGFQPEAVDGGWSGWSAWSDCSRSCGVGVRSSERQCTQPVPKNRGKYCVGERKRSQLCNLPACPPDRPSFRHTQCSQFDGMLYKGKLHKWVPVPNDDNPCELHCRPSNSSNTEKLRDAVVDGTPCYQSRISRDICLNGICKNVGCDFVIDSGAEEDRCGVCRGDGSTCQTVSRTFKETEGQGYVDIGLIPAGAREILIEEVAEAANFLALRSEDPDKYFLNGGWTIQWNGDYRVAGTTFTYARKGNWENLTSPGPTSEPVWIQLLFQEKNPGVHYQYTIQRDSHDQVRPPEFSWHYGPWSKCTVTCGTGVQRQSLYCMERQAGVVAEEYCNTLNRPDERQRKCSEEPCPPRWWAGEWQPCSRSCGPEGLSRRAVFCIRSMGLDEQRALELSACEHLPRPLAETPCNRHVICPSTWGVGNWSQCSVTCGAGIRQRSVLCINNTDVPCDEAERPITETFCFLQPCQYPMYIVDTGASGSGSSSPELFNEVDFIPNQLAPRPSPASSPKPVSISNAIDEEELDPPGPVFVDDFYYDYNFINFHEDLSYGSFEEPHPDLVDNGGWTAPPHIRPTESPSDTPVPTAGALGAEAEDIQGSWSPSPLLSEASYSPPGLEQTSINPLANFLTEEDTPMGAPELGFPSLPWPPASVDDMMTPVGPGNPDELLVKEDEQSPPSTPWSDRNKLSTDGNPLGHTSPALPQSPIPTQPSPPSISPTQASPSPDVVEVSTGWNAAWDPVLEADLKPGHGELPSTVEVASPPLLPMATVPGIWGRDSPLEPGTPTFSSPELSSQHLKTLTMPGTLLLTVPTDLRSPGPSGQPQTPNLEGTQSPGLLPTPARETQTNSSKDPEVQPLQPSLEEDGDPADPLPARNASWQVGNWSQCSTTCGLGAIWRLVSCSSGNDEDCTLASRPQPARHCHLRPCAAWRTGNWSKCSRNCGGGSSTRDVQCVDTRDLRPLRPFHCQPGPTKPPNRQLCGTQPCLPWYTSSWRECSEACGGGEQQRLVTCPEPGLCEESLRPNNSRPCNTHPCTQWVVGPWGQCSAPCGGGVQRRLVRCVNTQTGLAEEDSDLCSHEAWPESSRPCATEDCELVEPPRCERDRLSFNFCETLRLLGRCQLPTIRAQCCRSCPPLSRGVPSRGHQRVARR
Experiment: TMT10 TAILS N-terminomics, HUVEC experiment (process replicates, trypsin/AspN digest)
Format: cell-based, human
Conditions: HUVEC TAILS HC; log fold change of N-terminal peptide, Ad-mADAMTS7 EQ over Luc
Outline: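 Full-length mouse ADAMTS7 (WT or E373Q mutant, C-terminal 3xFLAG) or luciferase was transduced via adenovirus, 50 MOI, into HCA-SMC (SMC1, SMC2) or HUVEC. SMC1: pooled media, technical triplicates 400 ug; SMC2: process triplicates 300 ug; HUVEC: process triplicates 200 ug, bFGF2 10 ng/ml.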

Substance	logFC.mEQ.over.Luc
COL18A1_1505 (LQPPVVQLHDSNPYPR; listed as Homo sapiens)	−0.84
LTBP2_79 (VAGLQPVER; listed as Homo sapiens)	−0.38
LTBP2_502 (LVENSVETRPPPWLPASPGHSLW; listed as Homo sapiens)	−0.22
MAP4_815 (AVASTGPSSR; listed as Homo sapiens)	0.36
NID2_291 (HSSVPLGR; listed as Homo sapiens)	−0.10
NUCB1_317 (FLASTQR; listed as Homo sapiens)	0.06
SPOCK1_27 (LAGGAGPNHGNFL; listed as Homo sapiens)	−0.17

Continued, values first:

logFC.mEQ.over.Luc	Substance
0.12	LTBP2_250 (SAAGEGTLAR; listed as Homo sapiens)
−0.60	LTBP3_208 (FLVPLGPGQISA; listed as Homo sapiens)
0.08	MAP4_816 (VASTGPSSR; listed as Homo sapiens)
−0.30	NID1_360 (FHQQHPQVI; listed as Homo sapiens)
−0.22	NUCB1_389 (LQQAVLHMEQR; listed as Homo sapiens)
−0.20	SERBP1_56 (QAAAQTNSNAAGKQLR; listed as Homo sapiens)
−0.13	SRGN_59 (LLPGESNKIPR; listed as Homo sapiens)
0.64	THBS2_290 (LSENLKR; listed as Homo sapiens)
